Source: PMC12129041, “Unique characteristics of autoantibodies targeting MET in patients with breast and lung cancer” (JCI Insight, 2025)

Tests used:
[1] = biological target: T1, SEMA, the ligand-binding domain of MET (Homo sapiens, UniProt P08581); test: ELISA; plates coated with 1 μg/mL MET or SEMA in PBS overnight at 4°C; blocked with PBS, 3% BSA, 20 mM EDTA, 0.05% Tween 20; mAbs from 64 μg/mL in 4-fold dilutions, 1 h room temperature; anti-IgG-HRP, OD650; settings: both partners purified
T1 construct: source: Expi293F, transient transfection, purified from supernatant (Ni-NTA); not shown: His6, C-terminal, kept; Avi-Tag, C-terminal, kept

[2] = biological target: T2, extracellular portion of MET (EC-MET) (human, UniProt P08581); test: as above; settings: both partners purified
T2 construct: MET, human, 908-amino acid extracellular portion; tags printed as HHHHHH and …; EC-MET was biotinylated with BirA for cell sorting only; also called recombinant ectodomain of MET; source: Expi293F, transient transfection, purified from supernatant (Ni-NTA); not shown: His6, C-terminal, kept; Avi-Tag, C-terminal, kept
T2 sequence (P08581 25-932): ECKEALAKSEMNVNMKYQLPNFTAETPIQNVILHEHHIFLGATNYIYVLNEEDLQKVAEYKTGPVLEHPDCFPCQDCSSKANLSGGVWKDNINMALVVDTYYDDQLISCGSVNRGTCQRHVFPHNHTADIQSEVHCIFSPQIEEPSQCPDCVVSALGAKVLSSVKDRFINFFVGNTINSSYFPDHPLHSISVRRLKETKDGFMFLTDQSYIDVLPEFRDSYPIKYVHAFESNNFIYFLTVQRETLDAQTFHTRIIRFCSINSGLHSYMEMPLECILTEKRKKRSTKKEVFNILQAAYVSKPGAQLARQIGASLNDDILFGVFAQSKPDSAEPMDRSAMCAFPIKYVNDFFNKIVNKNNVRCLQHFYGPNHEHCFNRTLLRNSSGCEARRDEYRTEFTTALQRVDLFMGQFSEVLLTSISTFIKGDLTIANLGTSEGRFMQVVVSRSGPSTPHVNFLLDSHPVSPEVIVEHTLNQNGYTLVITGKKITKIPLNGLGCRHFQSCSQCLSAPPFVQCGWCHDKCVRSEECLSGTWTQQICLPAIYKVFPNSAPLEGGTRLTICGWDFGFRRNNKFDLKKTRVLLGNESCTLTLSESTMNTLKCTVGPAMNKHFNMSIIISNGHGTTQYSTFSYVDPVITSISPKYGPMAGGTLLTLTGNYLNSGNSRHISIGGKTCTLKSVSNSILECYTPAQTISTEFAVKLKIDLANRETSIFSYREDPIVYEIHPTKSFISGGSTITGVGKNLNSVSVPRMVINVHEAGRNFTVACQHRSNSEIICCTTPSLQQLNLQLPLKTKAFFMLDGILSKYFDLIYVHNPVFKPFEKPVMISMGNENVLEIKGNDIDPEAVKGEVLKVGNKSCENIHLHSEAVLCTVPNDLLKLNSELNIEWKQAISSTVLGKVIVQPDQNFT

T1 sequence (P08581 27-515): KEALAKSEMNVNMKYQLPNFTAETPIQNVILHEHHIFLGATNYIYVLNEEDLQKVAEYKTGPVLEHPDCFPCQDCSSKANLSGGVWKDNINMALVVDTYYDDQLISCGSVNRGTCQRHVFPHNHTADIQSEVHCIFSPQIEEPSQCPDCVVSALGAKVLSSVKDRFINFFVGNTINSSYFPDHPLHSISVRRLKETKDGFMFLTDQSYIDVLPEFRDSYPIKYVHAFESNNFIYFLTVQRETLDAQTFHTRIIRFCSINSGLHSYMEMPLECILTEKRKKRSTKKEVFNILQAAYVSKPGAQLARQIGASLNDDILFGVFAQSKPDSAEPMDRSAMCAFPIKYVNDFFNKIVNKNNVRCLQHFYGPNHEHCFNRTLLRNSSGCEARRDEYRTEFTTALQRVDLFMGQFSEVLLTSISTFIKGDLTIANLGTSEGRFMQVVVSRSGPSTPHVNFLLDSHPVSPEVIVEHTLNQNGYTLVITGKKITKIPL

B1: mAb 69B253 (antibody, V domains shown)
VH: EVQLVESGGALVQPGGSLRLSCAASGFTFSSYGMGWVRQAPGKGLEWVSVIIGSGGSTSYVDSVRGRFTISRDNSRNMVYLQMSSLTVDDTAVYYCAKAACGVGFCYRSHWGQGTRVTVSS
VL: SLSVSPGETVTLSCRASQSVSSNLAWYQHKPGQAPRLLIHDASTRATGIPVRFSGSGSGTDFTLTISSLQSEDFAVYYCQHYYNWPYGFAQGTKLEIK
notes: heavy chain V(D)J region; light chain VJ region; light chain constant region of the Ig expression vector; Cloned from a MET-enriched B cell of a cancer patient; detected with anti-IgG secondary antibody; source: Expi293F, cotransfected heavy and light chain vectors, purified (protein A)
B1: binds [1]; binds [2].
